US20060052294A1 (CINCINNATI CHILDREN S HOSPITAL MEDICAL CENTER, published 2006)
Positions count from the first letter of the chain named. In names and notes the source's numbering stands.

B1: C5a-(1-66,Cys27Ala)-A8B-Lys69-Ala70 (ligand)
chain: TLQKKIEEIAAKYKHSVVKKCCYDGAAVNNDETCEQRAARISLGPRCIKAFTECCVVASQLRANISFKKALLR
B2: C5a-(1-66,Cys27Ala)-A8B (ligand)
chain: B1 chain with K69R, A70S
notes: Mutein of human C5a, expressed in the E. coli periplasm without a fusion partner and purified on mAb 561; also called C5aRA A8B; mutein A8B
B3: C5a-(1-66,Cys27Ala)-A8B-Ala69 (ligand)
chain: B1 chain with K69A, A70S
notes: also called A8B-Arg69Ala
B4: C5a-(1-66,Cys27Ala)-A8B-Asp69 (ligand)
chain: B1 chain with K69D, A70S
notes: also called A8B-Arg69Asp
B5: C5a-(1-66,Cys27Ala)-A8B-Cys73 (ligand)
chain: B1 chain with K69R, A70S, R73C
notes: also called Ab8-Cys73; 67-FKRSLLC-73
B6: C5a-(1-66,Cys27Ala)-A8B-Leu70 (ligand)
chain: B1 chain with K69R, A70L
notes: also called 67-FKRLLLR-73
B7: C5a-(1-66,Cys27Ala)-A8B-Leu70-Tyr73 (ligand)
chain: B1 chain with K69R, A70L, R73Y
notes: also called 67-FKRLLLY-73
B8: C5a-(1-66,Cys27Arg)-A8B (ligand)
chain: B1 chain with A27R, K69R, A70S
notes: also called A8B-Arg27; A8B Arg 27
B9: recombinant human C5a (ligand)
chain: TLQKKIEEIAAKYKHSVVKKCCYDGACVNNDETCEQRAARISLGPRCIKAFTECCVVASQLRANISHKDMQLGR
notes: 74-residue recombinant human C5a; also called rhC5a; rC5a
B10: C5a-(1-66,Cys27Ala)-A8B-Del.71-73 (ligand)
chain: TLQKKIEEIAAKYKHSVVKKCCYDGAAVNNDETCEQRAARISLGPRCIKAFTECCVVASQLRANISFKRS
notes: also called C5a-(1-66, Cys27Ala)-FKRS-70; 67-FKRS-70

Experiments:
human C5a receptor [1] = target: T1, human C5a receptor (human, UniProt P21730 1-350); experiment: cell-based or functional assay
T1 sequence (looked up): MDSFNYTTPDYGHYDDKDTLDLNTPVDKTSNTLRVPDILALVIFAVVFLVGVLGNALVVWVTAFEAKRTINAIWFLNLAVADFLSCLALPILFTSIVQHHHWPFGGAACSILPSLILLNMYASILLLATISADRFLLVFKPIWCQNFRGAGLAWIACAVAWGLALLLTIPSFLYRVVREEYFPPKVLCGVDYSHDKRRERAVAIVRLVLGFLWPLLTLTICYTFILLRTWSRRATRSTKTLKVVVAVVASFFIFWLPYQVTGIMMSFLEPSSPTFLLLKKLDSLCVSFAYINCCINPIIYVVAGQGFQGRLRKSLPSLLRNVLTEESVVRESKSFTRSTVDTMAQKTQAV

human C5a receptor [2] = target: T1, human C5a receptor; experiment: competition with 125I-rhC5a tracer on RBL cells stably transfected with human C5a receptor, on ice, filtration
Method: (§1) For competitive binding studies, 40 μl of a reaction mixture containing a constant amount of ¹²⁵I-rhC5a as tracer (≈17000 cpm) and increasing concentrations of unlabeled C5a muteins were incubated in a microtiter plate on ice. […] The binding reaction was started by adding 25 μl of ice-cold RBL-C5aR cell suspension. After incubation on ice for 30 min, cell bound and free ¹²⁵I-rhC5a were separated by filtration of 60 μl through a microtitration-membrane plate (Multiscreen™-HV; 0.45 μm, MAHV N45, Millipore) using a vacuum manifold (Millipore). […] Punched out membranes were counted in a γ-counter (Packard, Canberra). The plot of cell-bound ¹²⁵I-rhC5a versus concentration of unlabeled competitor yields the half-maximal inhibitory concentrations (IC₅₀) (cf. FIG. 3, Table 1).

human C5a receptor [3] = target: T1, human C5a receptor; experiment: competition with 125I-rhC5a on RBL cells stably transfected with human C5a receptor; reference rhC5a
Method: The values for rhC5a (“isolated” curve closest to the y-axis) are depicted as black circles, those for the mutein A8B as rhombi, for A8BLeu70 as triangles, for A8BLeu70Tyr73 as squares, for A8BArg as hexagons, for A8Bdel71-73 as dark-gray circles and those for A8BCys73 as light-gray circles.
as §1

ED50 [nM] (N-acetyl-beta-D-glucosaminidase release from C5aR-RBL cells) (human C5a receptor [1]) | ID50 [nM] (inhibition of N-acetyl-beta-D-glucosaminidase release from C5aR-RBL cells) (human C5a receptor [1]) | IC50 (human C5a receptor [2]) [nM] | fold difference of IC50 against rhC5a (human C5a receptor [3]) [fold] | Binder
> 4000 | 60.8 |  |  | B1
> 4000 | 22.3 | 35.4 |  | B2
36.8 |  | 30.1 |  | B3
5.9 |  | 5.4 |  | B4
> 4000 | 17.4 | 37.3 |  | B5
> 4000 | 7.9 | 23.1 |  | B6
> 4000 | 8.8 | 21.3 | 8 | B7
> 4000 | 17.5 | 43.1 | 16 | B8
3.5 |  | 2.7 |  | B9
> 4000 | 17.4 | 26.9 |  | B10
